According to PMC4633670, “Structural Characterization of a Newly Identified Component of α-Carboxysomes: The AAA+ Domain Protein CsoCbbQ” (Scientific Reports, 2015):
One block for each molecule: values may come before it.

How the values were obtained:
[1] = target: Hexa-histidine-tagged H. nea CsoCbbQ (Hneap_0905) (Halothiobacillus neapolitanus); test: SEC; size exclusion data of recombinant CsoCbbQ (Supplementary Fig. 2); conditions not shown
[2] = target: Hexa-histidine-tagged H. nea CsoCbbQ (Hneap_0905) (Halothiobacillus neapolitanus); test: crystal structure; His6-tagged CsoCbbQ crystallised with ATP in the mother liquor, ADP bound; 22 C, 0.1 M HEPES pH 7.5, 6% PEG-8000, 8% ethylene glycol; two molecules per asymmetric unit, hexamer by crystal symmetry
[3] = target: T1, N-terminal histidine-tagged CsoCbbO (Hneap_0910) (Halothiobacillus neapolitanus, UniProt D0KZ80 1-788); test: SEC; purified CsoCbbO/Q complex on Superdex 200 10/300 GL; 10 mM Tris-HCl pH 8.0, 100 mM NaCl, 0.25 ml/min; mass estimated against protein standards; settings: both partners purified
T1 construct: CsoCbbO, cso-associated CbbO of Halothiobacillus neapolitanus, locus tag Hneap_0910; 788 amino acids, VWA domain in its C-terminus; amplified from genomic DNA with primers from the ATG to the stop codon; Cloned into the BamHI and HindIII sites of pETDuet-1; It was insoluble when expressed alone in E. coli; also called HT-CbbO; hisCsoCbbO; not shown: His6, N-terminal, kept
T1 sequence (looked up): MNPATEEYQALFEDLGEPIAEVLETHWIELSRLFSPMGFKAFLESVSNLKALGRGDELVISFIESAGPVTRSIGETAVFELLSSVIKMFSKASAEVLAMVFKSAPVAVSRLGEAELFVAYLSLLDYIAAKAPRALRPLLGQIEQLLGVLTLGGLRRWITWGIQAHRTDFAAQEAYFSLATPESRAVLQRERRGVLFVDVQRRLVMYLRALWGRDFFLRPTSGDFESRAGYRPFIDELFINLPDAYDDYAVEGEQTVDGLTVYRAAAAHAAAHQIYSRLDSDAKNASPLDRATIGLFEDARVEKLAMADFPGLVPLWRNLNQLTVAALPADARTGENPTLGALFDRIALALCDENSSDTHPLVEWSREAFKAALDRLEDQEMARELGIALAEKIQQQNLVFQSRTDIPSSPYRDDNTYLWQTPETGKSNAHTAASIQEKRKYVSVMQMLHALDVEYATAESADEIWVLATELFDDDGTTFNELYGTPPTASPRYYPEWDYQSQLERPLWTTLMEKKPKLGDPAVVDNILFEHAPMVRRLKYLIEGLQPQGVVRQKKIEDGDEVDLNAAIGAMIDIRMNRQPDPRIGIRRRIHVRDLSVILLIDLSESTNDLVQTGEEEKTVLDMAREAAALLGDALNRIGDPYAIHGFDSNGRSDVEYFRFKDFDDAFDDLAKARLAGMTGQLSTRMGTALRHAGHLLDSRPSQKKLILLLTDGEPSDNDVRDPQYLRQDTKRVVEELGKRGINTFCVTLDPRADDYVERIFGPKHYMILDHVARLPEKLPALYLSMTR

[4] = target: the molecule itself; test: as above

- stoichiometry N [1]: 6
- stoichiometry N [2]: 6
Molecule: Hexa-histidine-tagged H. nea CsoCbbQ (Hneap_0905) (enzyme)

- stoichiometry N [3]: ~6
B1: non-His6-tagged CsoCbbQ (NT-CbbQ) (enzyme, Halothiobacillus neapolitanus, UniProt D0KZ75 1-267, looked up)
chain: MTQNADQYRVRKEPYYRAVQDEIELYRAGYEARIPMMLKGPTGCGKSRFVEHMAWKLNRPLITIACNEDMTASDLVGRYLLDKDGTRWQDGPLTVAARIGAICYLDEIVEARQDTIVVIHPLTDHRRVLPLEKKGELVEAHPDFQIVISYNPGYQSLMKDLKQSTKQRFGALDFDYPKPDIEAEIVSHEAGVDKDTAEKLVQIAQKARNLKGHGLDEGLSTRLLVYAGKLIAKGVDARAACTMTLVNPITDDVDMRDALDTVVKTFF
notes: CsoCbbQ of Halothiobacillus neapolitanus, locus tag Hneap_0905
- stoichiometry N [4]: ~6
